Laboratory results as given in patent US20160068860A1, “TRANSGENIC PLANTS” (CONSEJO SUPERIOR DE INVESTIGACIONES CIENTIFICAS (CSIC), priority 2013, published 2016).

B1: PYL4H82R V97A (AtPYL H82 and V97A) (receptor)
chain: MLAVHRPSSAVSDGDSVQIPMMIASFQKRFPSLSRDSTAARFHTHEVGPNQCCSAVIQEISAPISTVWSVVRRFDNPQAYKRFLKSCSVIGGDGDNAGSLRQVHVVSGLPAASSTERLDILDDERHVISFSVVGGDHRLSNYRSVTTLHPSPISGTVVVESYVVDVPPGNTKEETCDFVDVIVRCNLQSLAKIAENTAAESKKKMSL
notes: also called PYL4H82R (found combined with V97A)
B2: PYL4A194T: AtPYL4 ABA receptor mutant polypeptide with A194T substitution (SEQ ID NO. 60; nucleic acid SEQ ID NO: 55); also over-expressed in plants (protein, listed as Arabidopsis thaliana)
chain: MLAVHRPSSAVSDGDSVQIPMMIASFQKRFPSLSRDSTAARFHTHEVGPNQCCSAVIQEISAPISTVWSVVRRFDNPQAYKHFLKSCSVIGGDGDNVGSLRQVHVVSGLPAASSTERLDILDDERHVISFSVVGGDHRLSNYRSVTTLHPSPISGTVVVESYVVDVPPGNTKEETCDFVDVIVRCNLQSLAKITENTAAESKKKMSL

How the values were obtained:
[1] = tested on: 6His-ΔNPP2CA; assay: Binding assay with 6His-ΔNPP2CA (Ni-affinity co-purification, size exclusion, pull-down); design: species or system Arabidopsis; conditions: for pull-down interaction with PP2CA: absence or presence of 100 μM ABA
Experimental: For small scale protein purifications, E. coli BL21 (DE3) cells transformed with the corresponding constructs were grown in 100 ml of LB medium to an OD600 of 0.6-0.8. At this point 1 mM isopropyl-β-D-thiogalactoside (IPTG) was added and the cells were harvested after overnight incubation at 20° C. Pellets were resuspended in lysis buffer (50 mM Tris pH 7.5, 250 mM KCl, 10% Glycerol, 1 mM β-mercaptoethanol) and lysed by sonication with a Branson Sonifier 250. The clear lysate obained after centrifugation was purified by Ni-affinity. A washing step was performed using 50 mM Tris, 250 mM KCl, 20% Glycerol, 30 mM imidazole and 1 mM […] washing buffer, and finally the protein was eluted using 50 mM Tris, 250 mM KCl, 20% Glycerol, 250 mM imidazole and 1 mM […] elution buffer For protein-protein interaction experiments, the pET28a_ΔNPP2CA, pETM11_PYL4 wt and pETM11_PYL4A194T plasmids were transformed into E. coli BL21 (DE3). A total of 8 ml of an overnight culture were sub-cultured into 800 ml fresh 2TY broth (16 g Bacto tryptone, 10 g yeast extract, 5 g NaCl per litre of solution) plus kanamycin (50 μg ml-1). Protein expression was induced with 0.3 mM IPTG and the cells were harvested after overnight incubation at 20° C. Pellets were resuspended in 25 mM TrisHCl pH 8.0, 50 mM NaCl, 50 mM imidazole, 5 mM […] and disrupted by sonication. After centrifugation (40 min, 40000 g) at 277 K, the clear supernatant was filtered (pore diameter […]; Millipore Corporation, Bedford, Mass., USA). The 6His-tagged proteins were purified using Ni-NTA Agarose (Qiagen) according to the manufacturer's instructions. The filtered supernatant was mixed with the previously equilibrated beads. After incubation, a washing step with ten volumes of 25 mM TrisHCl pH 8.0, 50 mM NaCl, 20 mM imidazole, 5 mM […] buffer was performed followed by the elution from the Ni2+ resin in a buffer with 500 mM imidazole. Imidazole was removed using a PD-10 column (GE Healthcare) and the His-tag was cleaved using TEV protease.
6His-ΔNPP2CA pellets were resuspended in 25 mM TrisHCl pH 8.0, 150 mM NaCl, 50 mM imidazole, 5 mM 3-mercaptoethanol, 5 mM Mg2+, mixed with 8 mg of either pure non-tagged (through TEV cleavage) PYL4 or PYL4A194T and disrupted by sonication. The crude extracts were treated as described above using His-Trap HP columns from GE Healthcare to the capture step according to the manufacturer's instructions. In all cases, the purified proteins were subjected to a size exclusion chromatography using a Superdex200 10/300 (Amersham Biosciences Limited, UK) to analyze the behavior in a gel filtration of each protein and to isolate the complex. […] After three washes, proteins were eluted by adding 500 mM imidazol and analyzed by SDS-PAGE.

[2] = tested on: Arabidopsis thaliana plants; assay: Root growth assay of OE lines on ABA; type: in vivo; conditions: 10 μM ABA, 10 d after transfer
Experimental: Seedlings were grown on vertically oriented MS plates for 4 to 5 days. Afterwards, 20 plants were transferred to new MS plates lacking or supplemented with the indicated concentrations of ABA. The plates were scanned on a flatbed scanner after 10-d to produce image files suitable for quantitative analysis of root growth using the NIH software ImageJ v1.37. As an indicator of shoot growth, the maximum rosette radius was measured.

[3] = tested on: Barley plants (cv. Golden Promise); type: in vivo, Hordeum vulgare; conditions: for vegetative growth under non-stress conditions: in vivo; for drought tolerance compared to non-transformed Golden promise wt plants / fresh weight/leaf after drought / survival and vegetative growth after drought and rewatering / weight/plant after drought and rewatering: transgenic barley; for drought tolerance compared to non-transformed Golden promise wt plants: 12-d period of drought; for fresh weight/leaf after drought / survival and vegetative growth after drought and rewatering / weight/plant after drought and rewatering: compared to non-transformed plants
From the text: Transgenic barley (cv. Golden Promise) expressing either Arabidopsis PYL4^A194T or PYL4^H82R V97A open reading frame driven by the Ubiquitin promoter from the pBract214 vector was generated via Agrobacterium-mediated transformation (Bartlett et al. 2008).
The nucleotide sequence encoding either PYL4^A194T or PYL4^H82R V97A open reading frame was recombined by LR reaction from pCR8/GW/TOPO entry vector into the Gateway compatible pBract214 destination vector. The sequence introduced in barley is the Arabidopsis open reading frame carrying the indicated mutations. Also, the second codon (of the sequence as shown in SEQ ID NO; 2) was modified to GTT to get a Ncol site to facilitate cloning).
Immature embryos were inoculated with Agrobacterium strain AGL1 containing the over-expression vector pBract214 into which the genes of interest had been cloned. pBract214 also contains the hygromycin resistance gene to allow selection of transgenic tissues and plants. Following co-cultivation for 3 days, immature embryos were transferred to selective callus induction medium containing hygromycin to allow the selection of transformed tissue and timentin to remove Agrobacterium. After a total of 6 weeks callus induction, callus were moved to a transition medium in low light and then 2 weeks later to regeneration medium under full light. Regenerated plants were transferred to rooting tubes when shoots reached 2-3 cm in length. Plants with strong roots in hygromycin containing medium were then established in soil and grown to maturity under controlled environment conditions in order to obtain T1 seed progeny.
Barley plants (cv. Golden Promise) were routinely grown under greenhouse conditions (40-50% relative humidity, 23-24° C.) in pots containing a 1:3 vermiculite-soil mixture. Pots were grouped in trays where water was maintained approximately 0.2-1 cm above the bottom of the tray. For drought (D) stress experiments, four-week-old plants were watered with tap water for 12-d (minus D, water maintained 0.2-1 cm above the bottom of the tray) or were submitted to drought for 12-d (plus D, water withdrawal). One flag leaf per plant (10 individual plants for each genetic background, minus and plus D treatment) was weighed in order to obtain its fresh weight and dried for 16 h at 70° C. and weighed again to obtain its dry weight. After the 12 day drought period, plants that had been submitted to drought were re-watered (RW, water 1 cm above the bottom of the tray for 2-d, then water withdrawal) and weight per plant (destructive measurement to obtain above ground biomass) was obtained after 5-d (plus D, plus RW). The results obtained are described in FIGS. 9, 10 and 11.

| Molecule | pull-down interaction with PP2CA [1] | ABA-mediated inhibition of root growth [2] | vegetative growth under non-stress conditions [3] | drought tolerance compared to non-transformed Golden promise wt plants [3] | fresh weight/leaf after drought [3] | survival and vegetative growth after drought and rewatering [3] | weight/plant after drought and rewatering [3] | co-purification with 6His-ΔNPP2CA by Ni-affinity chromatography ([1]; absence of ABA) | complex with 6His-ΔNPP2CA by size exclusion chromatography ([1]; absence of ABA) |
| --- | --- | --- | --- | --- | --- | --- | --- | --- | --- |
| PYL4: AtPYL4 wild type ABA receptor polypeptide (SEQ ID NO:3, At2g38310) [reference compound] | dependent on the addition of ABA | enhanced ABA-mediated inhibition of root growth compared to non-transformed plants |  |  |  |  |  |  |  |
| B1 |  |  | did not impair vegetative growth | enhanced drought tolerance | higher fresh weight/leaf | enhanced survival and vegetative growth | higher weight/plant |  |  |
| B2 | ABA-independent binding | enhanced ABA-mediated inhibition of root growth compared to non-transformed plants | did not impair vegetative growth | enhanced drought tolerance | higher fresh weight/leaf | enhanced survival and vegetative growth | higher weight/plant | could be co-purified | 1:1 complex |
